In patent US5889153A, “Protein or polypeptide, method for producing the same and intermediate compound therefor” (Hisamitsu Pharmaceutical Co., Inc., priority 1994, dated 1999):
One block for each substance: values may come before it.

What was measured:
[1] = test system: blood glucose; assay: pharmacological effect of modified insulin: blood glucose value after intravenous administration; assay type: in vivo; conditions: about 0.5 U intravenously, normal rat
Description: Then, at prescribed intervals of time, venous blood was sampled to measure the insulin concentration in blood and blood glucose value at each time point.

[2] = test system: acute gastric ulcer; assay: pharmacological effect of modified SOD: water immersion stress ulcerative model; assay type: in vivo; conditions: 10,000 U, rat, compared with non-modified SOD
Description: To a rat, 10,000 U p-nitrophenyl formate-activated polyethyleneglycol-monocholesterolether (compound C)-modified or non-modified SOD were administered. Then, an acute gastric ulcer was caused in accordance with the method for preparing a water immersion stress ulcerative model, and the effect inhibiting generation of ulcer at this point was investigated.

[3] = in-vivo behaviors of modified SOD: SOD concentration in blood after intravenous administration; parameters: species or system rat; conditions: about 5,000 U intravenously; for in-vivo behaviors (SOD concentration in blood): urethane-anesthetized rat or rat with ligated renal artery
Description: About 5,000 U p-nitrophenyl formate-activated polyethyleneglycol-monocholesterolether (compound C)-modified or non-modified SOD were intravenously administered to an urethane-anesthetized rat or a rat of which only the renal artery was ligated after urethane anesthesia. Then, at prescribed intervals of time, venous blood was sampled to measure the SOD concentration in blood at each time point.

[4] = water-solubility of reactive PEG derivative; assay type: physicochemical; conditions: 0.025 mM Na2B4O7.10H2O, pH 9.2, given as the reason for insufficient modification
Description: After dissolving bovine-derived insulin (6.0 mg) in 0.025 mM Na2 B4 O7.10H2 O (pH: 9.2) in an amount of 200 ml, p-nitrophenyl formate-activated polyethyleneglycolmono-cholesterolether (compound A), N-succinimide-activated polyethyleneglycol-monocholesterolether (compound B), p-nitrophenyl formate-activated polyethyleneglycol-mono-cholesterolether (compound C), cyanulchloride-activated polyethyleneglycol-monocholesterolether (compound D), double-type cyanulchloride-activated polyethyleneglycol-monocholesterolether (compound E), and p-nitrophenyl formate-activated polyethyleneglycol-monocholosterolether (compound F) obtained in Example 1 were respectively added in an amount of 2.0 nmol, and the mixtures were stirred at the room temperature for five hours. The resultant mixtures were purified through gel filtration by the use of Sephadex G-75 (made by Pharmacia Company). The target fraction was desalted and concentrated through ultrafiltration (made by Pharmacia Company), thereby obtaining the target aqueous solution (1.8 mg/ml). In the case of p-nitrophenyl formate-activated polyethylene-glycol-monocholesterolether (compoundA), the target modification was insufficient. […] In the case of p-nitrophenyl formate-activated polyethyleneglycol-monocholesterolether (compound F) also, the chemical modification was not sufficient. This is considered to be due to stereo-hindrance.

Substance: insulin [non-modified insulin]
- pharmacological effect (blood glucose value) [1]: identical pharmacological effects

Substance: modified SOD: bovine-derived Cu, Zn-SOD modified with p-nitrophenyl formate-activated polyethyleneglycol-monocholesterolether (compound C), Example 3
- effect inhibiting generation of ulcer [2]: production of an ulcer is inhibited
- glomerular filtration ([3]; rat): exempt from glomerular filtration
- half-life in blood ([3]; rat): extended
- in-vivo behaviors (SOD concentration in blood) [3]: largely improved

Substance: non-modified SOD: bovine-derived Cu, Zn-SOD (Superoxide Dismutase), not modified
- in-vivo behaviors (SOD concentration in blood) [3]: clearly improved

- water-solubility [4]: low water-solubility
Substance: p-nitrophenyl formate-activated polyethylene-glycolmonocholesterolether [compound A]
